Measurements published in PMC9405973, “Altered Conformational Landscape upon Sensing Guanine Nucleotides in a Disease Mutant of Elongation Factor-like 1 (EFL1) GTPase” (Biomolecules, 2022).

Columns and labels:
[1] = Enzyme kinetics of GTP hydrolysis (PNP coupled assay, Michaelis–Menten); format: biochemical, Saccharomyces cerevisiae; conditions: isolated enzyme
Experimental: (§1) Finally, we measured the enzyme kinetics of mutant Efl1 R1086Q as an isolated enzyme and bound to Sdo1 using an enzymatic coupled assay with a purine nucleoside phosphorylase (PNP) enzyme. This analysis was extended to another disease mutation (EFL1 M882K) also located in domain IV of the GTPase using the equivalent yeast variant, Efl1 L910K [17]. The Km and kcat kinetic parameters were calculated using non-linear regression assuming a Michaelis–Menten model (Supplementary Table S1). […] The catalytic constant for mutant R1086Q and the wild-type enzyme consisted of 0.67 min^−1, and it was 0.58 min^−1 for mutant Efl1 L910K. […] In line with the proposed role of Sdo1 as a guanine exchange factor of Efl1, previous results have shown that the interaction of wild-type Efl1 with Sdo1 impacted its Km for GTP, decreasing its value 2–3-fold. The Km values for the complexes formed between Sdo1 and Efl1 mutants decreased by half with respect to their cognate-free counterpart and differed from each other. […] The measured Km value comprises all the microscopic rate constants of the individual reactions occurring in the enzyme, which include the binding to the substrate and product and the corresponding conformational changes.
Hydrolysis of GTP was measured using the Enzchek Phosphate Assay kit (Molecular Probes) as described by Webb. Standard reactions consisted of 100 µL containing 6 µM of Efl1 R1086Q and Efl1 L910K, 0.3 mM MESG, 1.0 U purine nucleoside phosphorylase (PNP) and the indicated amounts of GTP. Measurements done in the presence of effector protein contained 25 µM of Sdo1.
The reaction buffer consisted of 50 mM HEPES -KOH pH 7.5, 150 mM NaCl, 5 mM MgCl2.
(§2) Reactions were initiated and the GTPase was added after 3 min. Time courses were followed by recording the change in absorbance at 360 nm in a Cary 60 UV -Vis spectrophotometer (Agilent Technologies). Background absorbance was recorded prior to the addition of the GTPase and subtracted from the sample signals. The slope of the measured time courses corresponded to the GTP hydrolysis rate. The concentration of releas ed phosphate was estimated using a molar absorption coefficient at 360 nm of 14,386 M -1 cm-1 previously described in [2]. Data were analysed by nonlinear regression to the M ichaelis-Menten equation with the program Origin Version 5.0 (OriginLab, Co., Northampton, MA). […]
M HEPES-KOH pH 7.4, 2.5 mM magnesium acetate, 50 mM sucrose, 2 mM DTT, 0.1 mM PMSF, 0.1 mM benzamidine, 8 mM putrescine, 1 mM spermidine. […]
Dilution at the end of each titration was no longer than 2.5% of the initial volume. Data were corrected for the background signal by subtracting the fluorescence of the same ligand concentration without the GTPase in the reaction mixture.
(§3) Maximum emission at 440 nm was replotted as a function of nucleotide concentration and analysed

[2] = test system: Tif6 bound to 60S subunits; assay: Tif6 release assay with purified yeast components; format: biochemical, Saccharomyces cerevisiae; conditions: 50 nM Efl1 variant, 50 nM Sdo1, 100 µM GTP, 30 °C, 10 min
Experimental: The release of Tif6 (yeast orthologue of eIF6) was performed as previously described in [3, 15]. Reaction mixtures contained 10 nM 60S subunits, 40 nM Tif6, 50 nM Efl1 variant, 50 nM Sdo1, and 100 µM GTP in buffer of 10 mM Tris-HCl at pH 7.4, 75 mM KCl, and 1.5 mM MgCl2 supplemented with RNAse inhibitors (Promega, Madison, WI, USA) and protease inhibitors free of EDTA (GoldBio, St. Louis, MO, USA). GTP was omitted in the negative control, and 50 mM EDTA was added as the positive control to disassemble the 60S ribosomal subunits. Reaction mixtures of 100 µL were incubated at 30 °C for 10 min and added on top of 150 µL of a 30% sucrose cushion prepared in the same buffer. Samples were centrifuged at 476,000× g for 30 min in an Optima tabletop MX ultracentrifuge with a TLA-100 rotor. The top 200 µL (free fraction) was recovered, and the remaining 50 µL was resuspended in 150 µL of the same buffer. Samples were precipitated with 30% trichloroacetic acid, electrophoresed in 10% Tris-glycine SDS-PAGE, transferred to a PVDF membrane, and immunoblotted with antibodies anti-eIF6 (PA531066; Thermo Scientific; dilution 1:3000) and anti-uL3 (OAAB09713; Aviva Systems Biology, San Diego, CA, USA; dilution 1:500) overnight at 4 °C. […] Signals were quantified using programme Image J version 1.8.0. […]

[3] = design: method as in PMID 25991726, PMID 30780079, PMID 23831625; conditions: wild-type Efl1; cited from earlier work
[4] = substrate: Nc1nc2c(ncn2[C@@H]2O[C@H](COP(=O)(O)OP(=O)(O)OP(=O)(O)O)[C@@H](O)[C@H]2O)c(=O)[nH]1; assay: GTP hydrolysis by PNP-coupled Enzchek phosphate assay (MESG, 360 nm), pH 7.5, 5 mM MgCl2, 6 µM Efl1 alone, Michaelis-Menten fit.; format: biochemical; conditions: 25.0 °C
Experimental: as §1
Hydrolysis of GTP was measured using the Enzchek Phosphate Assay kit (Molecular Probes) as described by Webb. […]
as §2, with “The concentration of releas ed phosphate was estimated using a molar absorption coefficient at 360 nm of 14,386 M -1 cm-1 previously described in [2].” left out
as §3

B1: Efl1 wild type (Saccharomyces cerevisiae S288C) (protein)
chain: MPRVESETYKRLQNDPSCIRNICIVAHVDHGKTSLSDSLLASNGIISQRLAGKIRFLDARPDEQLRGITMESSAISLYFRVLRKQEGSDEPLVSEHLVNLIDSPGHIDFSSEVSAASRLCDGAVVLVDVVEGVCSQTVTVLRQCWTEKLKPILVLNKIDRLITELQLTPQEAYIHLSKVIEQVNSVIGSFFANERQLDDLFWREQLEKNENAEYIEKDDSGIYFNPTDNNVIFASAIDGWGFNIGQLAKFYEQKLGAKRENLQKVLWGDFYMDPKTKKIINNKGLKGRSLKPLFTSLILENIWKIYQNIITSRDSEMVEKIAKTLNIKLLARDLRSKDDKQLLRTIMGQWLPVSTAVLLTVIEKLPSPLESQTDRLNTILVSESDTAAMDPRLLKAMKTCDKEGPVSAYVSKMLSIPREELPVESKRIASSDELMERSRKAREEALNAAKHAGMVENMAMMDLNDNSKNTSDLYKRAKDTVMTPEVGEQTKPKPSRNNDVFCVVSEPSSALDLEFEYEGEDDSDSQDNFGLDFVPTDIDPNDPLSSMFEYEEEDPLLESIKQISEDVNDEVDDIFDEKEECLVAFARIYSGTLRVGQEISVLGPKYDPKCPEEHIETAIITHLYLFMGKELVPLDVCPSGNIVGIRGLAGKVLKSGTLIEKGVQGVNLAGVNFHFTPIVRVAVEPANPVEMSKLVRGLKLLDQADPCVHTYVENTGEHILCTAGELHLERCLKDLTERFAGIEITHSEPAIPYRETFLSASDMNPPQNSQLGRGVHELLLSQYKITFRTFPLSGKVTDFLSQHQNSIKNILKTSTSSMDPVIESTGSSFLDKKSLLVAFEEVINQEEKSRELLSGFKVKLAGFGPSRVGCNILLSQDNLLGSLFEGTPAAFEYSDSIKNGFQLAVSEGPLANEPVQGMCVLVESVHKMSQDEIESIEDPRYQQHIVDLSGRLITSTRDAIHEAFLDWSPRIMWAIYSCDIQTSVDVLGKVYAVILQRHGKIISEEMKEGTPFFQIEAHVPVVEAFGLSEDIRKRTSGAAQPQLVFSGFECIDLDPFWVPTTEEELEELGDTADRENIARKHMNAIRRRKGLFIEEKVVENAEKQRTLKKN
notes: recombinantly expressed in S. cerevisiae; isolated GTPase
[1]
  kcat: 0.0112 s⁻¹
[2]
  release of Tif6 from the 60S subunit (distribution of Tif6 in free and bound fraction, immunoblot): Tif6 was enriched in the free fraction
[3]
  fold decrease of Km for GTP upon interaction with Sdo1: 2–3 fold
[4]
  Km: 155 µM
